Laboratory results from patent US20260167699A1 (Chugai, published 2026).

T1: FcγRIIa(R) extracellular domain with C-terminal His tag (human, UniProt P12318 34-217)
T1 construct: extracellular domain; R131 allotype; also called 2aR; CD32
T1 sequence: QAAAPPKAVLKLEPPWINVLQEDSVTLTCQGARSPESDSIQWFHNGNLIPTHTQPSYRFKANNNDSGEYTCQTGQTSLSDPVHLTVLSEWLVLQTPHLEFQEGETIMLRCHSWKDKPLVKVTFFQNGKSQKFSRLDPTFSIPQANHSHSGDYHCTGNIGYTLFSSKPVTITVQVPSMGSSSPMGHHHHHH

T2: FcγRIIa(H) extracellular domain with C-terminal His tag (human, UniProt P12318 34-217)
T2 construct: extracellular domain; H131 allotype; also called 2aH; CD32
T2 sequence: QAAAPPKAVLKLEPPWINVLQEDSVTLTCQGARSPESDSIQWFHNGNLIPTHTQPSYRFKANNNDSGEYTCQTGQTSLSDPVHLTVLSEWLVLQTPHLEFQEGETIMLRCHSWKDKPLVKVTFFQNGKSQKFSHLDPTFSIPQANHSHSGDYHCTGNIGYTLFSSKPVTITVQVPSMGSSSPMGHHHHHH

T3: FcγRIIb extracellular domain with C-terminal His tag (human, UniProt P31994 43-217)
T3 construct: extracellular domain; also called 2b; CD32
T3 sequence: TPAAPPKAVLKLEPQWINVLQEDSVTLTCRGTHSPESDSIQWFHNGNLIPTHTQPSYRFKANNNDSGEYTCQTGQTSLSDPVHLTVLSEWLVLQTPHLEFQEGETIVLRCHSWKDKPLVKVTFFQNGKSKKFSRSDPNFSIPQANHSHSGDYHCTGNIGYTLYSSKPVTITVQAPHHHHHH


Legend:
Assay in all cases: SPR; % of GpH7-A5/GpH7-B3/GpL16-k0
[1] = target: T4, FcγRIa extracellular domain with C-terminal His tag (human, UniProt P12314 16-292)
T4 construct: extracellular domain; also called 1a; CD64
T4 sequence (P12314 other isoform, or with tags, fused parts or gaps): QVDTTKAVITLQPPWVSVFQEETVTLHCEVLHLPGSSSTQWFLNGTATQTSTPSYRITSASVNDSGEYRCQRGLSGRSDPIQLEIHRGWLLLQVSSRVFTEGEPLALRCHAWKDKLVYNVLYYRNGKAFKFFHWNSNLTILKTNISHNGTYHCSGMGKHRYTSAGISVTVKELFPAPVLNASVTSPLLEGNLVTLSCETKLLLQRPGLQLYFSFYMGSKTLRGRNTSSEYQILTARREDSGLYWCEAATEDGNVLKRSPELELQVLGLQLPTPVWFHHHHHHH

[2] = target: T1, FcγRIIa(R) extracellular domain with …
[3] = target: T2, FcγRIIa(H) extracellular domain with …
[4] = target: T3, FcγRIIb extracellular domain with …
[5] = target: T5, FcγRIIIa extracellular domain with C-terminal His tag (human, UniProt P08637 17-208)
T5 construct: extracellular domain; also called 3a; CD16
T5 sequence (P08637 other isoform, or with tags, fused parts or gaps): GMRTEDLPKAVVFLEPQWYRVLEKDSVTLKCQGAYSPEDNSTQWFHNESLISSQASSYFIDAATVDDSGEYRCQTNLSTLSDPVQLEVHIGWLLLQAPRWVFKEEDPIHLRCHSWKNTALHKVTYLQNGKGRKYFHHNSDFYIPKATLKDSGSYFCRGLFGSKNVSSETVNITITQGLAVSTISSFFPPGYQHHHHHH

Row | Binder | He/Con 1a [1] | He/Con 2aR [2] | He/Con 2aH [3] | He/Con 2b [4] | He/Con 3a [5]
1 | GpH7-A5/GpH7-B3 variant E333_05P/GpL16-k0 (antibody, human IgG1, kappa, heterodimerized IgG1 (He Ab), mutation in one H chain only; also called He Ab) heavy 1: not shown heavy 2: not shown light: DIVMTQSPLSLPVTPGEPASISCQASESLVHSNRNTYLHWYLQKPGQSPQLLIYKVSNRFSGVPDRFSGSGSGTDFTLKISRVEAEDVGVYYCSQNTHVPPTFGQGTKVEIERTVAAPSVFIFPPSDEQLKSGTASVVCLLNNFYPREAKVQWKVDNALQSGNSQESVTEQDSKDSTYSLSSTLTLSKADYEKHKVYACEVTHQGLSSPVTKSFNRGEC | 96.9% | 143% | 112% | 126% | 100%
2 | GpH7-A5/GpH7-B3 variant E333_06M/GpL16-k0 (antibody, human IgG1, kappa, heterodimerized IgG1 (He Ab), mutation in one H chain only; also called He Ab) heavy 1: not shown heavy 2: not shown light: DIVMTQSPLSLPVTPGEPASISCQASESLVHSNRNTYLHWYLQKPGQSPQLLIYKVSNRFSGVPDRFSGSGSGTDFTLKISRVEAEDVGVYYCSQNTHVPPTFGQGTKVEIERTVAAPSVFIFPPSDEQLKSGTASVVCLLNNFYPREAKVQWKVDNALQSGNSQESVTEQDSKDSTYSLSSTLTLSKADYEKHKVYACEVTHQGLSSPVTKSFNRGEC | 96.7% | 132% | 110% | 110% | 100%
3 | GpH7-A5/GpH7-B3 variant E333_16H/GpL16-k0 (antibody, human IgG1, kappa, heterodimerized IgG1 (He Ab), mutation in one H chain only; also called He Ab) heavy 1: not shown heavy 2: not shown light: DIVMTQSPLSLPVTPGEPASISCQASESLVHSNRNTYLHWYLQKPGQSPQLLIYKVSNRFSGVPDRFSGSGSGTDFTLKISRVEAEDVGVYYCSQNTHVPPTFGQGTKVEIERTVAAPSVFIFPPSDEQLKSGTASVVCLLNNFYPREAKVQWKVDNALQSGNSQESVTEQDSKDSTYSLSSTLTLSKADYEKHKVYACEVTHQGLSSPVTKSFNRGEC | 95.4% | 119% | 114% | 108% | 106%
4 | GpH7-A5/GpH7-B3 variant E333_11K/GpL16-k0 (antibody, human IgG1, kappa, heterodimerized IgG1 (He Ab), mutation in one H chain only; also called He Ab) heavy 1: not shown heavy 2: not shown light: DIVMTQSPLSLPVTPGEPASISCQASESLVHSNRNTYLHWYLQKPGQSPQLLIYKVSNRFSGVPDRFSGSGSGTDFTLKISRVEAEDVGVYYCSQNTHVPPTFGQGTKVEIERTVAAPSVFIFPPSDEQLKSGTASVVCLLNNFYPREAKVQWKVDNALQSGNSQESVTEQDSKDSTYSLSSTLTLSKADYEKHKVYACEVTHQGLSSPVTKSFNRGEC | 96.6% | 128% | 112% | 104% | 97.7%
5 | GpH7-A5/GpH7-B3 variant E333_12R/GpL16-k0 (antibody, human IgG1, kappa, heterodimerized IgG1 (He Ab), mutation in one H chain only; also called He Ab) heavy 1: not shown heavy 2: not shown light: DIVMTQSPLSLPVTPGEPASISCQASESLVHSNRNTYLHWYLQKPGQSPQLLIYKVSNRFSGVPDRFSGSGSGTDFTLKISRVEAEDVGVYYCSQNTHVPPTFGQGTKVEIERTVAAPSVFIFPPSDEQLKSGTASVVCLLNNFYPREAKVQWKVDNALQSGNSQESVTEQDSKDSTYSLSSTLTLSKADYEKHKVYACEVTHQGLSSPVTKSFNRGEC | 96.7% | 127% | 110% | 104% | 92.2%
6 | GpH7-A5/GpH7-B3 variant E333_09D/GpL16-k0 (antibody, human IgG1, kappa, heterodimerized IgG1 (He Ab), mutation in one H chain only; also called He Ab) heavy 1: not shown heavy 2: not shown light: DIVMTQSPLSLPVTPGEPASISCQASESLVHSNRNTYLHWYLQKPGQSPQLLIYKVSNRFSGVPDRFSGSGSGTDFTLKISRVEAEDVGVYYCSQNTHVPPTFGQGTKVEIERTVAAPSVFIFPPSDEQLKSGTASVVCLLNNFYPREAKVQWKVDNALQSGNSQESVTEQDSKDSTYSLSSTLTLSKADYEKHKVYACEVTHQGLSSPVTKSFNRGEC | 98% | 141% | 119% | 122% | 115%
7 | GpH7-A5/GpH7-B3 variant E333_08L/GpL16-k0 (antibody, human IgG1, kappa, heterodimerized IgG1 (He Ab), mutation in one H chain only; also called He Ab) heavy 1: not shown heavy 2: not shown light: DIVMTQSPLSLPVTPGEPASISCQASESLVHSNRNTYLHWYLQKPGQSPQLLIYKVSNRFSGVPDRFSGSGSGTDFTLKISRVEAEDVGVYYCSQNTHVPPTFGQGTKVEIERTVAAPSVFIFPPSDEQLKSGTASVVCLLNNFYPREAKVQWKVDNALQSGNSQESVTEQDSKDSTYSLSSTLTLSKADYEKHKVYACEVTHQGLSSPVTKSFNRGEC | 96.8% | 140% | 116% | 123% | 102%
8 | GpH7-A5/GpH7-B3 variant E333_18N/GpL16-k0 (antibody, human IgG1, kappa, heterodimerized IgG1 (He Ab), mutation in one H chain only; also called He Ab) heavy 1: not shown heavy 2: not shown light: DIVMTQSPLSLPVTPGEPASISCQASESLVHSNRNTYLHWYLQKPGQSPQLLIYKVSNRFSGVPDRFSGSGSGTDFTLKISRVEAEDVGVYYCSQNTHVPPTFGQGTKVEIERTVAAPSVFIFPPSDEQLKSGTASVVCLLNNFYPREAKVQWKVDNALQSGNSQESVTEQDSKDSTYSLSSTLTLSKADYEKHKVYACEVTHQGLSSPVTKSFNRGEC | 91.4% | 118% | 110% | 98.2% | 76.2%
9 | GpH7-A5/GpH7-B3 variant E333_15Y/GpL16-k0 (antibody, human IgG1, kappa, heterodimerized IgG1 (He Ab), mutation in one H chain only; also called He Ab) heavy 1: not shown heavy 2: not shown light: DIVMTQSPLSLPVTPGEPASISCQASESLVHSNRNTYLHWYLQKPGQSPQLLIYKVSNRFSGVPDRFSGSGSGTDFTLKISRVEAEDVGVYYCSQNTHVPPTFGQGTKVEIERTVAAPSVFIFPPSDEQLKSGTASVVCLLNNFYPREAKVQWKVDNALQSGNSQESVTEQDSKDSTYSLSSTLTLSKADYEKHKVYACEVTHQGLSSPVTKSFNRGEC | 95.8% | 137% | 114% | 122% | 101%
10 | GpH7-A5/GpH7-B3 variant E333_19Q/GpL16-k0 (antibody, human IgG1, kappa, heterodimerized IgG1 (He Ab), mutation in one H chain only; also called He Ab) heavy 1: not shown heavy 2: not shown light: DIVMTQSPLSLPVTPGEPASISCQASESLVHSNRNTYLHWYLQKPGQSPQLLIYKVSNRFSGVPDRFSGSGSGTDFTLKISRVEAEDVGVYYCSQNTHVPPTFGQGTKVEIERTVAAPSVFIFPPSDEQLKSGTASVVCLLNNFYPREAKVQWKVDNALQSGNSQESVTEQDSKDSTYSLSSTLTLSKADYEKHKVYACEVTHQGLSSPVTKSFNRGEC | 93.7% | 130% | 113% | 110% | 101%
11 | GpH7-A5/GpH7-B3 variant E333_07I/GpL16-k0 (antibody, human IgG1, kappa, heterodimerized IgG1 (He Ab), mutation in one H chain only; also called He Ab) heavy 1: not shown heavy 2: not shown light: DIVMTQSPLSLPVTPGEPASISCQASESLVHSNRNTYLHWYLQKPGQSPQLLIYKVSNRFSGVPDRFSGSGSGTDFTLKISRVEAEDVGVYYCSQNTHVPPTFGQGTKVEIERTVAAPSVFIFPPSDEQLKSGTASVVCLLNNFYPREAKVQWKVDNALQSGNSQESVTEQDSKDSTYSLSSTLTLSKADYEKHKVYACEVTHQGLSSPVTKSFNRGEC | 96.5% | 142% | 113% | 124% | 100%
12 | GpH7-A5/GpH7-B3 variant E333_13S/GpL16-k0 (antibody, human IgG1, kappa, heterodimerized IgG1 (He Ab), mutation in one H chain only; also called He Ab) heavy 1: not shown heavy 2: not shown light: DIVMTQSPLSLPVTPGEPASISCQASESLVHSNRNTYLHWYLQKPGQSPQLLIYKVSNRFSGVPDRFSGSGSGTDFTLKISRVEAEDVGVYYCSQNTHVPPTFGQGTKVEIERTVAAPSVFIFPPSDEQLKSGTASVVCLLNNFYPREAKVQWKVDNALQSGNSQESVTEQDSKDSTYSLSSTLTLSKADYEKHKVYACEVTHQGLSSPVTKSFNRGEC | 97.6% | 125% | 115% | 106% | 106%
13 | GpH7-A5/GpH7-B3 variant E333_14T/GpL16-k0 (antibody, human IgG1, kappa, heterodimerized IgG1 (He Ab), mutation in one H chain only; also called He Ab) heavy 1: not shown heavy 2: not shown light: DIVMTQSPLSLPVTPGEPASISCQASESLVHSNRNTYLHWYLQKPGQSPQLLIYKVSNRFSGVPDRFSGSGSGTDFTLKISRVEAEDVGVYYCSQNTHVPPTFGQGTKVEIERTVAAPSVFIFPPSDEQLKSGTASVVCLLNNFYPREAKVQWKVDNALQSGNSQESVTEQDSKDSTYSLSSTLTLSKADYEKHKVYACEVTHQGLSSPVTKSFNRGEC | 96.7% | 135% | 115% | 111% | 100%
